Experimental data reported in patent publication US20240254227A1 (Alector, published 2024).

T1: recombinant murine CD300LB overexpressed on BaF/3 cells (mouse, UniProt Q3U497 18-209)
T1 sequence: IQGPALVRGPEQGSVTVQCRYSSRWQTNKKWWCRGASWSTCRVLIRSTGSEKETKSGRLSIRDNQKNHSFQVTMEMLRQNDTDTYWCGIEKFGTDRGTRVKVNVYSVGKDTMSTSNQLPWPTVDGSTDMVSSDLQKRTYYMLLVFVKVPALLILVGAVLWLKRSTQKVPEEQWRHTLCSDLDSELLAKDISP

T2: murine CD300LB stably expressed on Jurkat cells (mouse, UniProt Q3U497 18-209)
T2 construct: also called muCD300LB; mouse CD300LB
T2 sequence: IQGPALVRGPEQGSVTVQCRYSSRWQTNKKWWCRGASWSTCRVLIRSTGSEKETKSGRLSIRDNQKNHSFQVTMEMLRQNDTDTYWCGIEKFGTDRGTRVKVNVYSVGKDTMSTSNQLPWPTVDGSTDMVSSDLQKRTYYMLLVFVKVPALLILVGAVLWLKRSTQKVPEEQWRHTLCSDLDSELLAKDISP

T3: recombinant human CD300LB overexpressed on Jurkat cells (human, UniProt A8K4G0 18-201)
T3 construct: also called huCD300LB; huCD300LB-expressing Jurkat cells
T3 sequence: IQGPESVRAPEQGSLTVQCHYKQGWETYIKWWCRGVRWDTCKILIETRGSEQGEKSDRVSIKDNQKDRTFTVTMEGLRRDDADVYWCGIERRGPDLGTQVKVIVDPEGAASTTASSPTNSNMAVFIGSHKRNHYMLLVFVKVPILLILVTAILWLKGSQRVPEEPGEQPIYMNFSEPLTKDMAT

T4: huCD300F constitutively expressed on 293 Freestyle (Freestyle HEK) cells (human, UniProt Q8TDQ1 20-290)
T4 construct: also called huCD300LF; Human CD300F
T4 sequence: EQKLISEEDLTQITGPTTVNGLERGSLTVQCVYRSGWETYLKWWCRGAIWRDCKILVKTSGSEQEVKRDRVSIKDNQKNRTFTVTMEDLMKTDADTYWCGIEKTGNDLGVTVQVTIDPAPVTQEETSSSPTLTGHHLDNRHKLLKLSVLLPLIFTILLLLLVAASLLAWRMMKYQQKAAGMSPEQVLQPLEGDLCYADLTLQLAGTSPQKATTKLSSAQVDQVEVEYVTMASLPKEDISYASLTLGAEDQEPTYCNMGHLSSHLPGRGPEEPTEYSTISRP

B1: anti-CD300LB antibody CD-11 (antibody, V domains shown)
VH: QIQLVQSGPEVKKPGETVKISCKASGYTLTDYSMHWVMQTPGTGLKWMAWMNTETGEPTYADDFKGRFAFSLETSAGTAYLQIDNLKNEDTATYFCATYGKSYGMKYWGQGTSVTVSS
VL: DIVLTQSPPSLAVSLGQRATISCRATKSVSPYLHWYQQTPGQPPKLLIYLASNLDSGVPARFSGSGSGTDFTLNIHPVEEEDAATYYCQHNKELPPTFGGGTRLEIK
B2: anti-CD300LB antibody CD-12 (antibody, V domains shown)
VH: QIQLVQSGPELKKPGETVKISCKASGYTFTDYSMHWVRQAPGKGLKWMAWINTETGEATHADDFKGRFDFSLDTSASTAYLQIKNLKNEDTGIYFCVCYGSSYGMDYWGQGTSVTVSS
VL: DIVLTQSPASLPVSLGQRATISCRASKSVRTSGASYMHWYQQKPGQPPKLLIYLASNLKSGVPTRFSGSGSGTDFTLNIHPVEEEDAATYYCQHNREVPPTFGGGTKLEIK
B3: anti-CD300LB antibody CD-15 (antibody, V domains shown)
VH: QIQLVQSGPELKKPGETVKISCQVSGYTFTDYSMHWLKQAPGKGLKWMAWINTETGESTYTDEFKGRFVFSLETSVRTAYLKINNLKNEDTATYFCGTYGSSYGMAYWGQGTSVTVSS
VL: DIVLTQSPASLPVSLGQRATISCRASKSVSTSGSSYLHWYQQKPGQPPKLLIYLASKLESGVPARFRGSGSGTDFTLNIHPVEEEDAATYYCQHNREVPPTFGGGTKLEIK
B4: anti-CD300LB antibody CD-16 (antibody, V domains shown)
VH: QIQLVQSGPELKKPGETVKISCKASGYTFTDYSMHWVKQAPGKGLKWMAWINTETGEPTYADDFRGRFAFSLETSGRTAYLEINNLRNEDTATYFCVTYGSSYGMAYWGQGTSVTVSS
VL: DIVLTQSPASLAVSLGQRATISCRASKSVSRSGYSYLHWYQQKPGQPPKLLIYLASKLESGVPARFSGSGSGTDFTLNIHPVEAEDAATYYCQHNREIPPTFGGGTKLEIK
B5: anti-CD300LB antibody CD-07 (antibody, V domains shown)
VH: QVQLVQSGAEVKKPGASVKVSCKASGYTFTNYRMHWVRQAPGQGLEWMGWINPNSGGTIYAQKFQGRVTMTRDTSTSTVYMELSSLRSEDTAVYYCARDLDYWGQGTLVTVSS
VL: DIQMTQSPSSLSASVGDRVTITCQASQDISNYLNWYQQKPGKAPKLLIYGASSLQSGVPSRFSGSGSGTDFTLTISSLQPEDFATYYCQQSYSTPWTFGPGTKVEIK
B6: anti-CD300LB antibody CD-05 (antibody, V domains shown)
VH: QVQLVQSGAEVKKPGASVKVSCKASGYTFSRYYINWVRQAPGQGLEWMGWINPNSGGTNYAQKFQGRVTMTRDTSTSTVYMELSSLRSEDTAVYYCTTDQLRFGKTGPYYGMDVWGQGTTVTVSS
VL: DIQMTQSPSSLSASVGDRVTITCRASQNIGTYLNWYQQKPGKAPKLLIYAASSLQSGVPSRFSGSGSGTDFTLTISSLQPEDFATYYCQQSYSDTLTFGGGTKVEIK
B7: anti-CD300LB antibody CD-01 (antibody, V domains shown)
VH: RVQLQQSGAELVRPGASVTLSCKASGFTFTDFEMHWVKKTPVHGLEWIGAIDPESGNTAYNQKFRGKATLTADKSSSTAYMELRYLTSEDSAVYYCTPLISGADYWGQGTTLTVSS
VL: DVVMTQSPLSLPVSLGDQASISCRSSQSLVHSDGNTYLYWYLQKPGQSPKLLIYKVSNRFSGVPDRFSGSGSGTDFTFKISRVGAEDLGVYFCSQSTHVPWTFGGGTKLEII
B8: anti-CD300LB antibody CD-02 (antibody, V domains shown)
VH: QVQLQQPGAELVRPGSSVKLSCQASGYTFTNYWMHWVRQRPIQGLEWIGNIDPSDSETHYNQKFKDRATLTVDKSSSTAYMQLSSLTSEDSAVYYCARSGVYDDEGGDYWGQGTTLTVSS
VL: ENVLTQSPAIMSASPGEKVTMTCSASSSVSYIHWYQQKSSTSPKLWIYDTSKLASGVPGRFSGSGSGNSYSLTISSMETEDVATYYCFQGSGYPLTFGAGTKLELK
B9: anti-CD300LB antibody CD-06 (antibody, V domains shown)
VH: QVQLVQSGAEVKKPGASVKVSCKASGYTFTTYAVHWVRQAPGQGLEWMGIVNPNSGGTNYAQKFQGRVTMTRDTSTSTVYMELSSLRSEDTAVYYCARDIVPMNNFYNYYYGMDVWGQGTTVTVSS
VL: DIQMTQSPSSLSASVGDRVTITCRASQSISSYLNWYQQKPGKAPKLLIYATSTLQSGVPSRFSGSGSGTDFTLTISSLQPEDFATYYCQQSYRIPYTFGQGTKVEIK
B10: anti-CD300LB antibody CD-10 (antibody, V domains shown)
VH: QVQLQQSGPELVRPGVSVKISCKGSGYTFTDYAMHWVKQSHVRSREWIGVIGTYNGHTNYNQKFKGKATMTVDKSSSTAYLELARLTSEDSAIYYCARSGSYYYSMDYWGQGTSVTVSS
VL: QIVLTQSPAIMSASPGEKVTMTCSASSSVNYMHWYQQKSGTSPKRWIYDTSKLSSGVPARFSGSGSGTSYSLTISTMEAEDAATYYCQQWSSNPPMTFGGGTKLEIK
B11: anti-CD300LB antibody CD-03 (antibody, V domains shown)
VH: EVQLQQSGPELVKPGASVKISCKASGYTFTDYYINWVRQSHGKSLECIGDINPNNGGTNYNQKFKGKATLTVDRSSNTAYMEFRSLTFDDSALYYCAAEGAYWGQGTLVTVSA
VL: not shown

Assays:
[1] = biological target: T1, recombinant murine CD300LB …; test: cell-based or functional assay
[2] = biological target: T2, murine CD300LB stably expressed on …; test: flow cytometry, stable Jurkat cells, 10 ug/mL, isotype subtracted
Protocol: Purified anti-CD300LB antibodies of the present disclosure were analyzed for cross-reactivity to other murine CD300 family members stably expressed in Jurkat cells (generation of which is described above). Cells were counted and labeled with 200 nM CFSE, 500 nM VioBlue, or a combination of the two to discriminate between muCD300LB, Parental cells, CD300F, and the other CD300 family members. Cells were washed thoroughly with PBS containing 2% fetal bovine serum then resuspended at a total of 240,000 cells per well. Purified antibodies at 10 μg/mL were added and incubated for one hour before the cells were washed twice again and stained with an APC-labeled anti-mouse secondary. Cells were then analyzed using a BD FACSCanto II. Antibodies were analyzed for specific binding to muCD300LB by FlowJo software by gating on live cells, then the APC gMFI calculated for each labeled population by subtracting the gMFI of the isotype control. The gMFI results of the analysis are presented below in Table 4.

[3] = biological target: T3, recombinant human CD300LB overexpressed …; test: flow cytometry, stable Jurkat cells, supernatant or 10 ug/mL, isotype subtracted
Protocol: (§1) Purified anti-CD300LB antibodies of the present disclosure were also evaluated for species cross-reactivity to mouse and human CD300LB stably expressed in Jurkat cells (generation of which is described above). Cells were counted and labeled with 200 nM CFSE, 500 nM VioBlue, or a combination of the two to discriminate between human CD300LB, Parental cells and mouse CD300LB. Cells were washed thoroughly with PBS containing 2% fetal bovine serum then resuspended at a total of 240,000 cells per well. Hybridoma supernatants (100 L) or purified antibodies at 10 μg/mL were added and incubated for one hour before the cells were washed again and stained with an APC-labeled anti-human or anti-mouse secondary. Cells were then analyzed using a BD FACSCanto II. Antibodies were analyzed for binding to mouse or human CD300LB by FlowJo software by gating on live cells, then the APC gMFI calculated for each labeled population by subtraction of the gMFI of the appropriate isotype control.

[4] = biological target: T2, murine CD300LB stably expressed on …; test: as above
Protocol: as §1

[5] = biological target: T5, huCD300LB-DAP12 fusion constitutively expressed on 293 Freestyle (Freestyle HEK) cells (human); test: flow cytometry, stable Freestyle HEK cells
T5 construct: also called Human CD300LB-DAP12 chimera
Protocol: (§2) Other members of the human CD300 family share sequence homology with human CD300LB. Thus, counter screens against binding of the anti-CD300LB antibodies to huCD300A, huCD300C, huCD300LD, huCD300E, huCD300LF, and huCD300G by stable overexpression in Freestyle HEK cells (generation of which is described above) were performed as follows. Cells were counted and labeled with 200 nM CFSE, 500 nM VioBlue, or a combination of the two to discriminate between CD300LB, Parental cells, and the other CD300 family members. Cells were washed thoroughly with PBS containing 2% fetal bovine serum then resuspended at a total of 240,000 cells per well. Hybridoma supernatants (100 L) or purified antibodies at various concentrations were added and incubated for one hour before the cells were washed twice again and stained with an APC-labeled anti-human or anti-mouse secondary antibody. Cells were then analyzed using a BD FACSCanto II. Anti-CD300LB antibodies were analyzed for specific binding to human CD300LB by FlowJo software by gating on live cells, then the APC geometric mean fluorescence intensity (gMFI) calculated for each labeled population. The results are shown in […]
(§3) Freestyle HEK cells were transfected with huCD300A, huCD300C, huCD300D, huCD300E, and huCD300G separately. Then, five stable cell lines from these transfections were pooled; the combined cells are herein known as CD300A/C/D/E/G. Freestyle HEK cells were also transfected with huCD300LB and huCD300F. All transfected cells were then tested for binding of anti-CD300LB antibodies of the present disclosure.

[6] = biological target: T4, huCD300F constitutively expressed on …; test: flow cytometry, stable Freestyle HEK cells
Protocol: as §2, §3

Binder | Luminescence in BaF/3 [1] | gMFI [2] [gMFI] | gMFI [3] [gMFI] | gMFI [4] [gMFI] | gMFI [5] [gMFI] | binding result [6] | gMFI [6] [gMFI]
B1 | 22400 | 4660 | 50 | 320 | – | – | –
B2 | 22800 | 4210 | – | – | – | – | –
B3 | 23000 | 4140 | – | 506 | – | – | –
B4 | 792 | 4570 | – | 504 | – | – | –
B5 | – | – | – | – | 31500 | no binding | 112
B6 | – | – | 1810 | 172 | 113000 | no binding | 2730
B7 | – | – | 309 | 860 | 45 | – | -26
B8 | – | – | 1130 | 23 | 108 | – | -93
B9 | – | – | 3180 | -48.7 | 80900 | no binding | 886
B10 | – | 1610 | 18 | 284 | – | – | –
B11 | – | – | – | – | 163000 | no binding | 2090
